Source: patent US20260167731A1 (DOMAIN THERAPEUTICS, published 2026)
“And” between values parts separate entries of the source, which are not always exact repeats. Identical values can stand only once.

Key:
[1] = biological target: T1, human CCR8 (human, UniProt P51685 1-355); experiment: flow cytometry, HUT78 cells (endogenous CCR8)
T1 construct: also called hCCR8; hCCR8_P51685
Procedure: The same staining protocol was applied on human CCR8 transfected CHO cell line versus wild type CHO cell line, cutaneous T cell lymphoma HUT78 cell line and human activated T cell model.
Briefly, 1·10⁵ cells per well in a 96 well plate were incubated with a dilution of unconjugated anti-CCR8 mAb at 10 μg/mL then diluted at 1/3.33, 4 dilution points (during 30 min at 4° C.). In human activated T cells model, prior to mAb incubation, cells were first incubated with 200 nM of hCCL1 (R&D Systems, Minneapolis, MN, USA) or buffer PBS (Invitrogen by Thermofisher Scientific, Illkirch-Graffenstaden, France) supplemented by 2% Fetal Bovine Serum (Invitrogen by Thermofisher Scientific, Illkirch-Graffenstaden, France) and 2 mM EDTA (Invitrogen by Thermofisher Scientific, Illkirch-Graffenstaden, France) during 1 hour at 4° C. To determine EC50 value, 8 concentrations of anti-CCR8 mAb were tested. Unbound antibodies were washed away with PBS (Invitrogen by Thermofisher Scientific, Illkirch-Graffenstaden, France) supplemented by 2% Fetal Bovine Serum (Invitrogen by Thermofisher Scientific, Illkirch-Graffenstaden, France) and 2 mM EDTA (Invitrogen by Thermofisher Scientific, Illkirch-Graffenstaden, France). Subsequently, cells are centrifuged (5 min at 400 g) and bound antibody is detected with F(ab′)₂-Goat anti-Mouse IgG (H+L) Cross-Adsorbed Secondary Antibody, Alexa Fluor 488 (dilution 1/500) (Invitrogen by Thermofisher Scientific, Illkirch-Graffenstaden, France) or with F(ab′)₂-Goat anti-Human IgG Fc Secondary Antibody, PE (Invitrogen by Thermofisher Scientific, Illkirch-Graffenstaden, France) (dilution 1/1000) at 4° C. for 30 min. Detection reagent is washed away and cells are centrifuged (5 min at 400 g) and resuspended in 30 μL PBS. Bound detection antibody is quantified on a MacsQuant16 (Miltenyi, Gladbach, Germany) (B1 or B2 channel, 5000 events per acquisition). During the experiment, the respective isotype mAb controls (mouse IgG1, mouse IgG2a, mouse IgG2b, mouse IgG3 or human IgG1) (Biolegend, Amsterdam, The Netherlands) are included to exclude any unspecific binding events.
EC50 values were determined via nonlinear fit “log(agonist)vs.response−Variable slope (four parameters)” function of Graphpad prism. EC50 values were not constantly determined in the same experiments.

[2] = biological target: T1, human CCR8; experiment: cell-based or functional assay
[3] = biological target: T1, human CCR8; experiment: cell-based or functional assay; remark: listed apart in the source
[4] = biological target: T1, human CCR8; experiment: cell-based or functional assay; remark: listed apart in the source
[5] = biological target: T1, human CCR8; experiment: cell-based or functional assay; remark: listed apart in the source
[6] = biological target: pm4, modified CCR8 related peptide (human, sulfated tyrosines at Y15 and Y16); experiment: ELISA on coated CCR8 peptide (500 ng/mL), OD [cont.]
How it was run: (§1)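 Binding is scored by optical density: plates carry 500 ng/mL peptide in carbonate/bicarbonate buffer, receive mAb at 1 μg/mL or diluted 1/10 for 90 min at room temperature, then TMB for 15 min.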

[7] = biological target: pm2, modified CCR8 related peptide (human, sulfated tyrosine at Y16); experiment: as above
How it was run: as §1

[8] = biological target: pm3, modified CCR8 related peptide (human, sulfated tyrosine at Y17); experiment: as above
How it was run: as §1

[9] = biological target: pm8, modified CCR8 related peptide (human, sulfated tyrosines at Y15, Y16 and Y17); experiment: as above
How it was run: as §1

[10] = biological target: T2, pwt1, unmodified CCR8 related peptide (human, none (non-sulfated Y15, Y16, Y17)); experiment: as above
T2 construct: First 34 amino acids of human CCR8, synthetic; also called unmodified peptide
How it was run: as §1

[11] = biological target: pm1, modified CCR8 related peptide (human, sulfated tyrosine at Y15); experiment: as above
How it was run: as §1

[12] = biological target: pm6, modified CCR8 related peptide (human, sulfated tyrosines at Y16 and Y17); experiment: as above
How it was run: as §1

[13] = biological target: pm5, modified CCR8 related peptide (human, sulfated tyrosines at Y15 and Y17); experiment: as above
How it was run: as §1

[14] = biological target: T1, human CCR8; experiment: cell-based or functional assay; remark: listed apart in the source
[15] = biological target: T1, human CCR8; experiment: flow cytometry, hCCR8 transfected CHOK1 cells
How it was run: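 Bound mAb detected with Alexa Fluor 488 anti-mouse IgG or PE anti-human IgG Fc (30 min, 4 °C) by flow cytometry; isotype mAbs controlled unspecific binding.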

[16] = biological target: T1, human CCR8; experiment: flow cytometry, inhibition of hCCL1-AF647 binding to hCCR8 CHO cells
How it was run: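 hCCR8-transfected CHO cells preincubated 30 min at 4 °C with anti-CCR8 mAb from 10 μg/mL, 1/3 dilutions, 8 concentrations. Bound CCL1 quantified by flow cytometry. IC₅₀ from sigmoidal variable-slope fit.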

[17] = biological target: T1, human CCR8; experiment: cell-based or functional assay; remark: listed apart in the source
[18] = biological target: T1, human CCR8; experiment: cell-based or functional assay; remark: listed apart in the source

T2 sequence (peptide, as listed by the source): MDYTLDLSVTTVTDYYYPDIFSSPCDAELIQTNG
Sequence of pm1, modified CCR8 related peptide (human, sulfated tyrosine at Y15) (peptide, as listed by the source): as above
Sequence of pm4, modified CCR8 related peptide (human, sulfated tyrosines at Y15 and Y16) (peptide, as listed by the source): as above
Sequence of pm8, modified CCR8 related peptide (human, sulfated tyrosines at Y15, Y16 and Y17) (peptide, as listed by the source): as above
Sequence of pm3, modified CCR8 related peptide (human, sulfated tyrosine at Y17) (peptide, as listed by the source): as above
Sequence of pm5, modified CCR8 related peptide (human, sulfated tyrosines at Y15 and Y17) (peptide, as listed by the source): as above
Sequence of pm6, modified CCR8 related peptide (human, sulfated tyrosines at Y16 and Y17) (peptide, as listed by the source): as above
Sequence of pm2, modified CCR8 related peptide (human, sulfated tyrosine at Y16) (peptide, as listed by the source): as above

| ADCP % Max of phagocytosis, HUT78 targets, monocyte-derived macrophages Donor 9 [2] [%] | Top plateau values in presence of 5 µg/mL mAb (% of hCCL1 (100 nM)), protocol #3 [4] [%] | hCCL1 (100 nM) residual response in %, Protocol #2, mAb 0.08 µg/mL (0.53 nM) [5] [%] | hCCL1 (100 nM) residual response in %, Protocol #2, mAb 0.4 µg/mL (2.67 nM) [5] [%] | hCCL1 (100 nM) residual response in %, Protocol #2, mAb 10 µg/mL (66.7 nM) [5] [%] | hCCL1 (100 nM) residual response in %, Protocol #3, mAb 0.05 µg/mL (0.33 nM) [5] [%] | hCCL1 (100 nM) residual response in %, Protocol #3, mAb 0.5 µg/mL (3.33 nM) [5] [%] | hCCL1 (100 nM) residual response in %, Protocol #3, mAb 5 µg/mL (33.3 nM) [5] [%] | binding result [6] | binding result [7] | binding result [8] | binding result [9] | binding result [10] | binding result [11] | binding result [12] | binding result [13] | IC50, CCL1 induced hCCR8 Gi2 signaling (BRET, HEK-293) [14] | % positive cells [15] [%] | MFI fold change to isotype ctrl [15] [fold] | IC50 [16] | Binder | further results |
| --- | --- | --- | --- | --- | --- | --- | --- | --- | --- | --- | --- | --- | --- | --- | --- | --- | --- | --- | --- | --- | --- |
| – | 948 | 52 | 68 | 53 | 76 | 62 | 59 | binds | binds | binds | binds | binds | binds | binds | binds | 0.004 µg/mL and 0.029 nM | 77 | 9.2 | 0.22 µg/mL and 1.46 nM | anti-CCR8 mAb 2-10 (antibody, V domains shown) VH: QVQVQQSGAELARPGASVKMSCKASGYTFTTYAMHWVKQRPGQGLEWIGHINPSSGYSNYNQKFKDKATLTADKSSSTAYMQLSSLTSEDSAVYYCARSEVRRGYFDVWGAGTTVTVSS VL: DIQMTQTTSSLSASLGDRVTISCRTSQDIRNYLNWYQQKPDGTVKLLISYTSRLHSGVPSRFSGSGSGTDYSLTISNLEQEDFATYFCQQGNTLPPTFGGGTRVEIK | – |
| 7.27 | – | – | – | – | – | – | – | – | – | – | – | – | – | – | – | – | – | – | – | chimeric anti-CCR8 mAb 2-18 (antibody, human IgG1, kappa) heavy: not shown light: DVVMTQTPLSLPVSLGDQASISCRCTQSLLHTNGDTYLHWYLQKPGQSPKLLIYKVSNRFSGVPDRFSGSGSGTDFTLKISRVEAEDLGVYFCSQSTHVPYTFGGGTKLEIKRTVAAPSVFIFPPSDEQLKSGTASVVCLLNNFYPREAKVQWKVDNALQSGNSQESVTEQDSKDSTYSLSSTLTLSKADYEKHKVYACEVTHQGLSSPVTKSFNRGEC | ADCC % Max lysis, HUT78 targets, NK cells Donor 3 [17]: 25%; ADCC % Max lysis, HUT78 targets, NK cells Donor 4 [17]: 28%; ADCC EC50, HUT78 targets, NK cells Donor 3 [17]: 218 pM; ADCC EC50, HUT78 targets, NK cells Donor 4 [17]: 53 pM |

Further lines, the binder ahead of its results:

| Binder | ADCP % Max of phagocytosis, HUT78 targets, monocyte-derived macrophages Donor 9 [2] [%] | Top plateau values in presence of 5 µg/mL mAb (% of hCCL1 (100 nM)), protocol #3 [4] [%] | hCCL1 (100 nM) residual response in %, Protocol #2, mAb 0.08 µg/mL (0.53 nM) [5] [%] | hCCL1 (100 nM) residual response in %, Protocol #2, mAb 0.4 µg/mL (2.67 nM) [5] [%] | hCCL1 (100 nM) residual response in %, Protocol #2, mAb 10 µg/mL (66.7 nM) [5] [%] | hCCL1 (100 nM) residual response in %, Protocol #3, mAb 0.05 µg/mL (0.33 nM) [5] [%] | hCCL1 (100 nM) residual response in %, Protocol #3, mAb 0.5 µg/mL (3.33 nM) [5] [%] | hCCL1 (100 nM) residual response in %, Protocol #3, mAb 5 µg/mL (33.3 nM) [5] [%] | binding result [6] | binding result [7] | binding result [8] | binding result [9] | binding result [10] | binding result [11] | binding result [12] | binding result [13] | IC50, CCL1 induced hCCR8 Gi2 signaling (BRET, HEK-293) [14] | % positive cells [15] [%] | MFI fold change to isotype ctrl [15] [fold] | IC50 [16] | further results |
| --- | --- | --- | --- | --- | --- | --- | --- | --- | --- | --- | --- | --- | --- | --- | --- | --- | --- | --- | --- | --- | --- |
| afucosylated humanized anti-CCR8 mAb 2-16 (antibody, human IgG1, kappa, afucosylated Fc glycan, Same chains as 2-13, produced with 2-deoxy-2-fluoro-L-fucose (afucosylated)) heavy: not shown light: DIVMTQAAPSLSVTPGESASISCTSSKSLLHSNGNTYLYWFLQKPGQSPQLLIYRMSNLASGVPDRFSGSGSGTAFTLKISRVEAEDVGVYYCMQHREYPFTFGSGTKLEIKRTVAAPSVFIFPPSDEQLKSGTASVVCLLNNFYPREAKVQWKVDNALQSGNSQESVTEQDSKDSTYSLSSTLTLSKADYEKHKVYACEVTHQGLSSPVTKSFNRGEC | 8.29 | – | – | – | – | – | – | – | – | – | – | – | – | – | – | – | – | – | – | – | % of labelled cells [1]: 34%; EC50 [1]: 0.4 nM; MFI fold change to isotype ctrl [1]: 2.5 fold; ADCC EC50, HUT78 targets, NK cells Donor 1 [3]: 2.24 pM; ADCC EC50, HUT78 targets, NK cells Donor 2 [3]: 0.42 pM |
| anti-CCR8 mAb 2-1 (antibody, V domains shown) VH: KVQLQQSGPELVKPGASVKISCKTSGYTFTEYTIHWVQQIHGKSPEWIGGINPNGDTRYDQKFKGKATLTIDKSSSTAYMELRSLTSEDSAVYYCARVARFYGISPYAMDYWGQGTSVTVSS VL: DVVMTQTPLSLPVSLGDQASISCRCTQSLLHSNGDTYLHWYLQKPGQSPNLLIYKVSNRFSGVPDRFSGSGSGTDFTLKINRVEAEDLGVYFCSQSTHVPYTFGGGTNLEIK | – | 663 | 101 | 93 | 100 | 92 | 81 | 73 | binds | binds | binds | binds | binds | binds | binds | binds | 0.462 nM and 0.069 µg/mL | 85.7 | 9.8 | 1.29 µg/mL and 8.62 nM | IC50, CCL1 induced hCCR8 Gi2 signaling (BRET) at pH 6.5 [18]: 0.051 µg/ml and 0.34 nM; IC50, CCL1 induced hCCR8 Gi2 signaling (BRET) at pH 7.4 [18]: 0.059 µg/ml and 0.396 nM |
| anti-CCR8 mAb 2-2 (antibody, V domains shown) VH: QVQLKESGPGLVAPSQSLSITCTVSGLSMNDYVVTWIRQPPGKGLEWLGVIWGGGNTYYNSDLKSRLSITKDNSKSQVFFKMSSLQTDDTAVYYCARRHRDYALDYWGQGISVTVSS VL: DVVMTQTPLSLPVSLGDQASISCRSSQSLVYSNGNTYLHWYLQKPGQSPKLLIYKVSNRFSGVPDRFSGSGSGTDFTLKISRVEAEDLGVYFCSQSTYVPPTFGGGTKLEIK | – | 133 | 99 | 97 | 97 | 99 | 84 | 75 | binds | binds | binds | binds | binds | binds | binds | binds | 0.143 µg/mL and 0.954 nM | 85.2 | 11.9 | 2.65 µg/mL and 15.2 nM | IC50, CCL1 induced hCCR8 Gi2 signaling (BRET) at pH 6.5 [18]: 0.414 µg/ml and 2.76 nM; IC50, CCL1 induced hCCR8 Gi2 signaling (BRET) at pH 7.4 [18]: 0.359 µg/ml and 2.4 nM |
